Laboratory results from paper PMC11685791, “Noncanonical calcium binding motif controls folding of HopQ1, a Pseudomonas syringae type III secretion effector, in a pH-dependent manner” (Scientific Reports, 2024).
Where “and” joins values, the source holds several entries; their conditions need not be identical. Equal entries are not always repeated.

Assays:
[1] = molecular target: HopQ1 fused to ECFP or EYFP, expressed in N. benthamiana (Pseudomonas savastanoi pv. phaseolicola 1448A (former Pseudomonas syringae pv. phaseolicola 1448A)) (UniProt Q48BD8); test: FRET or BRET; FLIM-FRET in nuclei of N. benthamiana leaf cells; donor fused to ECFP, acceptor fused to EYFP, transiently co-expressed; eight to ten nuclei per combination
[2] = molecular target: Recombinant HopQ1 with a C-terminal 6 × His epitope (Pseudomonas savastanoi pv. phaseolicola 1448A (former Pseudomonas syringae pv. phaseolicola 1448A)) (UniProt Q48BD8); test: SEC; gel filtration on Superdex 200, reducing conditions with chelating agent (1 mM EDTA)
[3] = molecular target: Recombinant HopQ1 with a C-terminal 6 × His epitope (Pseudomonas savastanoi pv. phaseolicola 1448A (former Pseudomonas syringae pv. phaseolicola 1448A)) (UniProt Q48BD8); test: SEC-MALS; native (non-reducing) conditions; Superdex 200 10/300GL, 100 mM Tris-HCl, 150 mM NaCl, pH 8.0, 4 °C; 0.4 mg protein per run
[4] = molecular target: the molecule itself; test: SEC; gel filtration on Superdex 200, reducing conditions with chelating agent (1 mM EDTA)
[5] = molecular target: the molecule itself; test: SEC; gel filtration on Superdex 200 of the calcium-site mutant; 'all the conditions tested' (not listed for the mutant)

Nt14-3-3a-ECFP (natural protein)
FRET efficiency [1]: 14.2%

Recombinant HopQ1 with a C-terminal 6 × His epitope (from UniProt Q48BD8 1-447) (natural protein)
stoichiometry N [2]: 2
stoichiometry N [3]: 2 and 3

B1: RihA, a pyrimidine-specific ribonucleoside hydrolase from E. coli K-12 (enzyme, UniProt P41409 1-311, looked up)
chain: MALPILLDCDPGHDDAIAIVLALASPELDVKAITSSAGNQTPEKTLRNVLRMLTLLNRTDIPVAGGAVKPLMRELIIADNVHGESGLDGPALPEPTFAPQNCTAVELMAKTLRESAEPVTIVSTGPQTNVALLLNSHPELHSKIARIVIMGGAMGLGNWTPAAEFNIYVDPEAAEIVFQSGIPVVMAGLDVTHKAQIHVEDTERFRAIGNPVSTIVAELLDFFLEYHKDEKWGFVGAPLHDPCTIAWLLKPELFTSVERWVGVETQGKYTQGMTVVDYYYLTGNKPNATVMVDVDRQGFVDLLADRLKFYA
notes: RihA (also known as YbeK), pyrimidine-specific ribonucleoside hydrolase of E. coli K-12; also called YbeK; source: E. coli BL21 Rosetta, purified
stoichiometry N [4]: 4

B2: HopQ1-D107A_D108A (recombinant, 6 × His) (natural protein)
chain: MHRPITAGHTTSRLILDQLKQISRTPSESSVQSALSQQASMSSPVLERSKSAPALLTAAQRTMLAQVGACNSHLTSDENMAINELRLHKPRLPKDTWFFTDPNKDPAAVVTYTLGKQLQAEGFVHITDVVATLGDAEVRSQRAEMAKGVFNKLGLHDVHVSRGRDYAMNSLQSKEHAKFLLEGHALRAGPGEIHRDSLQDMSRRLARAPHGVGIVVIAGMSDINALITTCPDMVRERVDDITIMGGVEPLKDADGFVQPDARAYNNATDMDAARSLYRKAQELGIPLRIVTKEAAYKTAVSPSFYEGIAGSGHPVGHYLRDVQKSALKGLWEGIQAGLLPGLDDSWFFRTFMPNAQIEAAQLDKNKESSFEDIWPKVTKLNLYDPLTLLASVPGAAKLLFKPKAIHTEGFGVVEQVGPDDVTHPEKAKLLMSALAKSALVQSTVAPD
notes: HopQ1 of Pseudomonas savastanoi pv. phaseolicola 1448A, GenBank AAZ37975.1, with D107A and D108A; source: E. coli BL21 Rosetta, purified
stoichiometry N [5]: 2
